Values of other authors, collected in publication PMC6611495.

Target: protective antigen (PA) (Bacillus anthracis) (UniProt P13423)

For rCMG2 (from UniProt P58335), the Kd is given as 0.4 nM.
